Holding throughout (experiment): SEC-MALS; size-exclusion chromatography (Superdex 200) in 10-mM Tris, pH 7.5, 150-mM NaCl with Dawn Heleos II light scattering and Optilab T-rEX dRI detectors
(In general: SEC sorts molecules by how far they enter the pores of the column.)

In assay [1] the target is DdahB (C. jejuni).
Assay [2] has as its target DdahC (C. jejuni).
The target in assay [3] is MlghB (C. jejuni).
Assay [4] has as its target MlghC (C. jejuni).

For the substance DdahB (enzyme), the stoichiometry N in assay [1] worked out at 2.

In assay [2], DdahC (enzyme) came in with a stoichiometry N of 2.

The substance MlghB (enzyme) gave a stoichiometry N in assay [3] of 2.

In assay [4], MlghC (enzyme) gave a stoichiometry N of 2.

By stoichiometry N is commonly meant the number of molecules, sites or subunits per partner or assembly.

The values are drawn from paper PMC7949155.
